Test results published in patent publication US20250382363A1 (NUMAB THERAPEUTICS, published 2025).

B1: PRO2988 (scFv 37-20-B03-sc09.1_(P48A)) (scFv)
scFv: DIQMTQSPASLSASVGDRVTITCQASQSIGTYLAWYQQKPGKPPKLLIYRAFILASGVPSRFSGSGSGTDFTLTISSLQPEDFATYYCQSNFYSDSTTIGPNAFGTGTKVTVLGGGGGSGGGGSGGGGSGGGGSEVQLVESGGGLVQPGGSLRLSCAASGFSFNSDYWIYWVRQAAGKGLEWIASIYGGSSGNTQYASWAQGRFTISRDNSKNTVYLQMNSLRAEDTAVYFCARGYVDYGGATDLWGQGTLVTVSS
notes: PRO2230 variant; VH substitution, AHo numbering; also called PRO2230 P48A
B2: PRO3306 (scFv 37-20-B03-sc09.1_(L12A, T101R, L144A, T146Q)) (scFv)
scFv: DIQMTQSPASLSASVGDRVTITCQASQSIGTYLAWYQQKPGKPPKLLIYRAFILASGVPSRFSGSGSGTDFTLTISSLQPEDFATYYCQSNFYSDSTTIGPNAFGTGTKVTVLGGGGGSGGGGSGGGGSGGGGSEVQLVESGGGAVQPGGSLRLSCAASGFSFNSDYWIYWVRQAPGKGLEWIASIYGGSSGNTQYASWAQGRFTISRDNSKNTVYLQMNSLRAEDRAVYFCARGYVDYGGATDLWGQGTAVQVSS
notes: PRO2230 variant; VH substitutions, AHo numbering; also called PRO2230 L12A-T101R-L144A-T146Q
B3: PRO3307 (scFv 37-20-B03-sc09.1_(L12A, T101S, L144A, T146R)) (scFv)
scFv: DIQMTQSPASLSASVGDRVTITCQASQSIGTYLAWYQQKPGKPPKLLIYRAFILASGVPSRFSGSGSGTDFTLTISSLQPEDFATYYCQSNFYSDSTTIGPNAFGTGTKVTVLGGGGGSGGGGSGGGGSGGGGSEVQLVESGGGAVQPGGSLRLSCAASGFSFNSDYWIYWVRQAPGKGLEWIASIYGGSSGNTQYASWAQGRFTISRDNSKNTVYLQMNSLRAEDSAVYFCARGYVDYGGATDLWGQGTAVRVSS
notes: PRO2230 variant; VH substitutions, AHo numbering; also called PRO2230 L12A-T101S-L144A-T146R
B4: PRO3308 (scFv 37-20-B03-sc09.1_(L12A, T101S, L144K, T146Q)) (scFv)
scFv: DIQMTQSPASLSASVGDRVTITCQASQSIGTYLAWYQQKPGKPPKLLIYRAFILASGVPSRFSGSGSGTDFTLTISSLQPEDFATYYCQSNFYSDSTTIGPNAFGTGTKVTVLGGGGGSGGGGSGGGGSGGGGSEVQLVESGGGAVQPGGSLRLSCAASGFSFNSDYWIYWVRQAPGKGLEWIASIYGGSSGNTQYASWAQGRFTISRDNSKNTVYLQMNSLRAEDSAVYFCARGYVDYGGATDLWGQGTKVQVSS
notes: PRO2230 variant; VH substitutions, AHo numbering; also called PRO2230 L12A-T101S-L144K-T146Q
B5: PRO3309 (scFv 37-20-B03-sc09.1_(L12R, T101S, L144A, T146Q)) (scFv)
scFv: DIQMTQSPASLSASVGDRVTITCQASQSIGTYLAWYQQKPGKPPKLLIYRAFILASGVPSRFSGSGSGTDFTLTISSLQPEDFATYYCQSNFYSDSTTIGPNAFGTGTKVTVLGGGGGSGGGGSGGGGSGGGGSEVQLVESGGGRVQPGGSLRLSCAASGFSFNSDYWIYWVRQAPGKGLEWIASIYGGSSGNTQYASWAQGRFTISRDNSKNTVYLQMNSLRAEDSAVYFCARGYVDYGGATDLWGQGTAVQVSS
notes: PRO2230 variant; VH substitutions, AHo numbering; also called PRO2230 L12R-T101S-L144A-T146Q
B6: PRO3310 (scFv 37-20-B03-sc09.1_(L12R, T101R, L144A, T146Q)) (scFv)
scFv: DIQMTQSPASLSASVGDRVTITCQASQSIGTYLAWYQQKPGKPPKLLIYRAFILASGVPSRFSGSGSGTDFTLTISSLQPEDFATYYCQSNFYSDSTTIGPNAFGTGTKVTVLGGGGGSGGGGSGGGGSGGGGSEVQLVESGGGRVQPGGSLRLSCAASGFSFNSDYWIYWVRQAPGKGLEWIASIYGGSSGNTQYASWAQGRFTISRDNSKNTVYLQMNSLRAEDRAVYFCARGYVDYGGATDLWGQGTAVQVSS
notes: PRO2230 variant; VH substitutions, AHo numbering; also called PRO2230 L12R-T101R-L144A-T146Q
B7: PRO3311 (scFv 37-20-B03-sc09.1_(L12A, T101Q, L144A, T146Q)) (scFv)
scFv: DIQMTQSPASLSASVGDRVTITCQASQSIGTYLAWYQQKPGKPPKLLIYRAFILASGVPSRFSGSGSGTDFTLTISSLQPEDFATYYCQSNFYSDSTTIGPNAFGTGTKVTVLGGGGGSGGGGSGGGGSGGGGSEVQLVESGGGAVQPGGSLRLSCAASGFSFNSDYWIYWVRQAPGKGLEWIASIYGGSSGNTQYASWAQGRFTISRDNSKNTVYLQMNSLRAEDQAVYFCARGYVDYGGATDLWGQGTAVQVSS
notes: PRO2230 variant; VH substitutions, AHo numbering; also called PRO2230 L12A-T101Q-L144A-T146Q
B8: PRO3312 (scFv 37-20-B03-sc09.1_(T101R, T146Q)) (scFv)
scFv: DIQMTQSPASLSASVGDRVTITCQASQSIGTYLAWYQQKPGKPPKLLIYRAFILASGVPSRFSGSGSGTDFTLTISSLQPEDFATYYCQSNFYSDSTTIGPNAFGTGTKVTVLGGGGGSGGGGSGGGGSGGGGSEVQLVESGGGLVQPGGSLRLSCAASGFSFNSDYWIYWVRQAPGKGLEWIASIYGGSSGNTQYASWAQGRFTISRDNSKNTVYLQMNSLRAEDRAVYFCARGYVDYGGATDLWGQGTLVQVSS
notes: PRO2230 variant; VH substitutions, AHo numbering; also called PRO2230 T101R-T146Q

Tests used:
[1] = molecular target: T1, human a-PD-L1 Fc (Sino Biological, 10084-H02H, LC11NO2402) (human, UniProt Q9NZQ7 19-239); assay: SPR, PD-L1 Fc immobilised, scFv analyte, 1:1 fit
T1 construct: Bought Fc fusion immobilised on the SPR chip; Printed as 'a-PD-L1 Fc' but used as the antigen (ligand) for the anti-PD-L1 scFvs; also called Human PD-L1; not shown: Fc part
T1 sequence (Q9NZQ7 19-239 limits assumed): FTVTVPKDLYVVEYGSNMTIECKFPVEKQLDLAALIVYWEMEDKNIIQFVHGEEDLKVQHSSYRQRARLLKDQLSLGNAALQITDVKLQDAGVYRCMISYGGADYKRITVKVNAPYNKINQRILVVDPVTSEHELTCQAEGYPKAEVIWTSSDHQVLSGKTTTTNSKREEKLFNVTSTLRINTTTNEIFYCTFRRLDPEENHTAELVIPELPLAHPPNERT
Experimental: The mutation variants were then injected at concentrations of 10 nM, 2 nM and 0.4 nM over the ligand-immobilized and reference spots. The wild type variants were used as a control, while an empty spot was used as reference.
After each cycle with analyte, the surface was regenerated with a 3M MgCl₂ solution, thereby allowing the next analyte cycle to have only free ligand available. Binding affinity KD was globally calculated by the Bruker SPR software based on the binding association (kₒₙ) and dissociation (Koff) rate, by fitting a 1:1 Langmuir model to the curves obtained by the cycles with the three different concentrations of the analyte.

[2] = molecular target: pre-existing anti-drug antibodies (ADA) present in human sera; assay: pre-existing ADA ELISA, scFv coated, human sera unspiked vs spiked

| Binder | Kd [1] | n-fold to wt [1] | Mean No of serum samples >30% inhibition (30% CCP) with SCP (serum samples) [2] | No of serum samples >30% inhibition (30% CCP) without SCP (serum samples) [2] |
| --- | --- | --- | --- | --- |
| B1 | 0.034 nM | 0.7 fold | 3 | 7 |
| B2 | 0.018 nM | 0.4 fold | 0 | 7 |
| B3 | 0.027 nM | 0.6 fold | 4 | 7 |
| B4 | 0.036 nM | 0.7 fold | 2 | 7 |
| B5 | 0.026 nM | 0.5 fold | 1 | 4 |
| B6 | 0.038 nM | 0.8 fold | 3 | 6 |
| B7 | 0.048 nM | 1 fold | 7 | 10 |
| B8 | 0.041 nM | 0.8 fold | 1 | 2 |
